Data taken from publication PMC11006857, “Structure-guided functional suppression of AML-associated DNMT3A hotspot mutations” (Nature Communications, 2024).

Assays:
[1] = molecular target: DNMT3A^R882H/N879A protein (as used for size-exclusion chromatography) (human); assay: SEC; Superose 6 Increase 10/300 GL, 100 µL of 3 mg/mL protein, 4 °C, 20 mM Hepes pH 7.2, 250 mM NaCl, 5% glycerol, 5 mM DTT; elution volume against molecular weight standards
[2] = molecular target: the molecule itself; assay: as above
[3] = molecular target: the molecule itself; assay: crystal structure; DNMT3A MTase domain with S-adenosyl-homocysteine; sitting drop vapor diffusion, 0.2-0.4 M potassium sodium tartrate, 4 °C; homotetramer via RD and FF interfaces

Molecule	binding result [2]	also measured
DNMT3A^R882H/N879A protein (as used for size-exclusion chromatography) (domain or fragment)	–	stoichiometry N [1]: 4
MBP-tagged DNMT3A MTase domain R676K (domain or fragment, human, UniProt Q9Y6K1 628-912, looked up, human DNMT3A MTase domain, residues 628-912; source: E. coli BL21(DE3) RIL, purified; not shown: MBP, N-terminal, kept) AEKRKPIRVLSLFDGIATGLLVLKDLGIQVDRYIASEVCEDSITVGMVKHQGKIMYVGDVRSVTQKHIQEWGPFDLVIGGSPCNDLSIVNPARKGLYEGTGRLFFEFYRLLHDARPKEGDDRPFFWLFENVVAMGVSDKRDISRFLESNPVMIDAKEVSAAHRARYFWGNLPGMNRPLASTVNDKLELQECLEHGRIAKFSKVRTITTRSNSIKQGKDQHFPVFMNEKEDILWCTEMERVFGFPVHYTDVSNMSRLARQRLLGRSWSVPVIRHLFAPLKEYFACV	binds	–
MBP-tagged DNMT3A MTase domain M674T/R676K (domain or fragment, human, UniProt Q9Y6K1 628-912, looked up, human DNMT3A MTase domain, residues 628-912; source: E. coli BL21(DE3) RIL, purified; not shown: MBP, N-terminal, kept) AEKRKPIRVLSLFDGIATGLLVLKDLGIQVDRYIASEVCEDSITVGTVKHQGKIMYVGDVRSVTQKHIQEWGPFDLVIGGSPCNDLSIVNPARKGLYEGTGRLFFEFYRLLHDARPKEGDDRPFFWLFENVVAMGVSDKRDISRFLESNPVMIDAKEVSAAHRARYFWGNLPGMNRPLASTVNDKLELQECLEHGRIAKFSKVRTITTRSNSIKQGKDQHFPVFMNEKEDILWCTEMERVFGFPVHYTDVSNMSRLARQRLLGRSWSVPVIRHLFAPLKEYFACV	binds	–
DNMT3A^R882H/N879A (crystallised form) (domain or fragment, human, human DNMT3A; the abstract speaks of crystal structures of the methyltransferase domain; The crystallisation methods name only R882H/R676K and R882C/R676K as mutants; probably residues 628-912 like the others; also called DNMT3A^N879A/R882H; N879A/R882H-mutated DNMT3A; source: E. coli BL21(DE3) RIL, purified) AEKRKPIRVLSLFDGIATGLLVLKDLGIQVDRYIASEVCEDSITVGMVRHQGKIMYVGDVRSVTQKHIQEWGPFDLVIGGSPCNDLSIVNPARKGLYEGTGRLFFEFYRLLHDARPKEGDDRPFFWLFENVVAMGVSDKRDISRFLESNPVMIDAKEVSAAHRARYFWGNLPGMNRPLASTVNDKLELQECLEHGRIAKFSKVRTITTRSNSIKQGKDQHFPVFMNEKEDILWCTEMERVFGFPVHYTDVSAMSHLARQRLLGRSWSVPVIRHLFAPLKEYFACV	–	stoichiometry N [3]: 4
